Results reported in patent US8026218 (UNIVERSITY OF ARIZONA, dated 2011).
Bridge positions count the residues as written; N and C are the ends. Square brackets hold non-standard residues; d marks the D form. Primed or numbered codes have the meaning given here. Ends that are not written are not given here. * marks the point of attachment. NHBn(CF3)2 = C-terminal amide NH-Bn(CF3)2, a benzyl group carrying two CF3; Glc = O-glucosyl on Ser side chain (Ser(OGlu)/Ser(OGlc)); NH(3,5-(CF3)2-benzyl) = FC(F)(F)c1cc(CN*)cc(C(F)(F)F)c1; OBzl(3,5-(CF3)2) = FC(F)(F)c1cc(CO*)cc(C(F)(F)F)c1; Glc″ = glucosyl on the serine side-chain oxygen; NH‑Bn(CF3)2 = C-terminal Bn(CF3)2 amide; Dmt = Cc1cc(O)cc(C)c1C[C@H](N)C(=O)O; Nle = CCCC[C@H](N)C(=O)O; NHBn = c1ccc(CN*)cc1

Experiments:
human δ opioid receptor [1] = target: T1, human δ opioid receptor (human, UniProt P41143 1-372); experiment: cell-based or functional assay
T1 sequence (P41143 whole entry, stated change not applied): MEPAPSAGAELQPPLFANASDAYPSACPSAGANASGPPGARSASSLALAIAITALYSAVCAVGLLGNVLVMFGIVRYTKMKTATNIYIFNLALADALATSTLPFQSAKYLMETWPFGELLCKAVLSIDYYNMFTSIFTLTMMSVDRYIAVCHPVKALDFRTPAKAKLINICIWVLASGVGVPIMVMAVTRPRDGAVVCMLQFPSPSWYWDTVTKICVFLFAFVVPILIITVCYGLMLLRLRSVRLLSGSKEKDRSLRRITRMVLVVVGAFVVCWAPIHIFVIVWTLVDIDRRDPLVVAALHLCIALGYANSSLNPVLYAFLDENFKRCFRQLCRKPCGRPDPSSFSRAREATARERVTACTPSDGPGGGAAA

rat µ opioid receptor [2] = target: T2, rat µ opioid receptor (rat, UniProt P33535 1-398); experiment: cell-based or functional assay
T2 sequence (P33535 whole entry): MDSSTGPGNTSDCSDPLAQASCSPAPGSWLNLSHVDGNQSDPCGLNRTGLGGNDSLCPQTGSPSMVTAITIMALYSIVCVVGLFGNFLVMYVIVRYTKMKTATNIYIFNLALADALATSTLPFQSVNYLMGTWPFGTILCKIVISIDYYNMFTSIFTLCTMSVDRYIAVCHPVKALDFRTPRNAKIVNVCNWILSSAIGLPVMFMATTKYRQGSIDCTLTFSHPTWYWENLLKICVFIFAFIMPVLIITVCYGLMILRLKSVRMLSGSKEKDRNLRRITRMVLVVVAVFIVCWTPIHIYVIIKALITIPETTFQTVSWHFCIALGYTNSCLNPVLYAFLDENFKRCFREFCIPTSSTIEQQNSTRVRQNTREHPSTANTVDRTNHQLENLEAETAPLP

[3] = target: µ opioid receptor of the guinea pig isolated ileum (guinea pig, UniProt P97266 1-98); experiment: cell-based or functional assay
µ opioid receptor of the guinea pig isolated ileum, sequence (P97266 whole entry): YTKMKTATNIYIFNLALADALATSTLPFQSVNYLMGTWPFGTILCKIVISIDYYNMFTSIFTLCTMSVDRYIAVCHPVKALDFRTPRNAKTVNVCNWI

guinea pig NK1 receptor = guinea pig NK1 receptor (guinea pig, UniProt P30547 1-407); experiment: cell-based or functional assay
guinea pig NK1 receptor, sequence (P30547 whole entry): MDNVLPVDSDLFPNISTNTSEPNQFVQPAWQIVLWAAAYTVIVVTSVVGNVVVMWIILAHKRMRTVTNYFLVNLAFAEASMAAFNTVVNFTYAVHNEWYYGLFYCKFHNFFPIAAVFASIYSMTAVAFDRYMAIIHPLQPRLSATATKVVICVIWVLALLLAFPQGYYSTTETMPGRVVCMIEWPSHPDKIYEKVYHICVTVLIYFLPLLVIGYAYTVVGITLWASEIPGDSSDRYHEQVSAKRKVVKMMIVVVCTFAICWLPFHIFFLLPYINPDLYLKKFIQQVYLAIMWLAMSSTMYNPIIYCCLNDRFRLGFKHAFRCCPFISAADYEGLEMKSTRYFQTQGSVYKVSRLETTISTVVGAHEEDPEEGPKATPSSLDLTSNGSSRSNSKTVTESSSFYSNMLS

human δ opioid receptor [4] = target: T1, human δ opioid receptor; experiment: radioligand competition vs [3H]DPDPE, membranes of hDOR cells
human NK1 receptor = target: T3, human NK1 receptor (human, UniProt P25103 1-407); experiment: radioligand competition vs [3H]substance P, membranes of hNK1 CHO cells
T3 construct: whole, on cells; Used as membrane preparations of transfected CHO cells; also called hNK1; human neurokinin-1 receptor
T3 sequence (P25103 whole entry): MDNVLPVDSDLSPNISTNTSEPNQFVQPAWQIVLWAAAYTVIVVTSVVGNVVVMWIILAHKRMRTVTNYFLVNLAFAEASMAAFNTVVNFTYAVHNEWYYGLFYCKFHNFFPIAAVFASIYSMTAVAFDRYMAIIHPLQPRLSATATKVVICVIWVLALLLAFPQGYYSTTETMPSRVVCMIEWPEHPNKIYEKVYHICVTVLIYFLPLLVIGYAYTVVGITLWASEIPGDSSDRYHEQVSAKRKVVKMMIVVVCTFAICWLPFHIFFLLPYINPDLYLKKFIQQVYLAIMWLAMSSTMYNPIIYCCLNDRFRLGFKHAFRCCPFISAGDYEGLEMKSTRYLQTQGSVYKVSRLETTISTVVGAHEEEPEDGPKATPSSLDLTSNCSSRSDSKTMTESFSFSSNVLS

rat NK1 receptor = target: T4, rat NK1 receptor (rat, UniProt P14600 1-407); experiment: radioligand competition vs [3H]substance P, membranes of rNK1 CHO cells
T4 construct: whole, on cells; Used as membrane preparations of transfected CHO cells; also called rNK1; rat neurokinin-1 receptor
T4 sequence (P14600 whole entry): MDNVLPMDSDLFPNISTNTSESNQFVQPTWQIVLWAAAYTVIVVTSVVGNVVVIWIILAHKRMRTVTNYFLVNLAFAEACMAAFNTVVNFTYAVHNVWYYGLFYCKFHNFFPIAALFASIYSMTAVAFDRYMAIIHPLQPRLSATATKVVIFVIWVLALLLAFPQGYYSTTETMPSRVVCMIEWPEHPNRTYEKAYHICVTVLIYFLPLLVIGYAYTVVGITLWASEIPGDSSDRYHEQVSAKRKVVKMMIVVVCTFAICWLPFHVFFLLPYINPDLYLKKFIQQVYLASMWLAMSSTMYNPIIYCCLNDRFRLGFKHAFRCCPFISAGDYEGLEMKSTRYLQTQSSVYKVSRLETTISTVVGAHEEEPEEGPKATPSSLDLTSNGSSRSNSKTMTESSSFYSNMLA

rat µ opioid receptor [5] = target: T2, rat µ opioid receptor; experiment: radioligand competition vs [3H]DAMGO, membranes of rMOR cells

Binder	GTP binding hDOR EC50 (human δ opioid receptor [1])	GTP binding hDOR Emax (human δ opioid receptor [1])	GTP binding rMOR Emax (rat µ opioid receptor [2])	GPI/LMMP opioid(mu) agonist IC50 [3]	GPI/LMMP SP antagonist Ke (guinea pig NK1 receptor)	Ki (human δ opioid receptor [4])	GTP binding rMOR EC50 (rat µ opioid receptor [2])	Ki (human NK1 receptor)	Ki (rat NK1 receptor)	Ki (rat µ opioid receptor [5])
Y[dA]GFMPLW-NHBn [TyrDAlaGlyPheMetProLeuTrpNHBn (TY025)]	2.6 nM	51.7%	46.8%	61.1 nM	9.9 nM	0.44 nM				
[Dmt][dA]GFMPLW-{NH(3,5-(CF3)2-benzyl)} [DmtDAlaGlyPheMetProLeuTrpNHBn(CF3)2 (TY032)]	1.2 nM	24%	74%	18.6 nM	7.5 nM	0.12 nM	62 nM	0.008 nM	2.3 nM	
Y[dC]GF[Nle]PCW-{NH(3,5-(CF3)2-benzyl)} (disulfide 2-7, also called [D-Cys2, Cys7]TY027) [Tyr[DCysGlyPheNleProCys]TrpNHBn(CF3)2 (TY035)]	0.02 nM	11%	39%	1010 nM	2.2 nM	1.29 nM	36 nM	0.091 nM		79.2 nM
MPLW-{OBzl(3,5-(CF3)2)} [MetProLeuTrpOBn(CF3)2 (TY036)]						1280 nM			0.99 nM	4550 nM
MPLW-{NHBn(CF3)2} [MetProLeuTrpNHBn(CF3)2 (TY051)]								0.922 nM	62 nM	866 nM
YAGFXPLW (D-Ala at 2; Nle at 5 (X); C-terminal NH-Bn(CF3)2 amide) [TyrDAlaGlyPheNleProLeuTrpNHBn(CF3)2 (TY045)]	5 nM	125%		463 nM	40.8 nM	1 nM		0.0028 nM		
[Dmt][dA]GFMPLW-{OBzl(3,5-(CF3)2)} [DmtDAlaGlyPheMetProLeuTrpOBn(CF3)2 (TY033)]	0.73 nM	200%		100 nM	24.5 nM	0.22 nM		1.2 nM	0.96 nM	
YXGFXPLW (D-Pen at 2 and 5 (X); disulfide 2-5 (cyclic); C-terminal NH-Bn(CF3)2 amide) [Tyr[DPenGlyPheDPen]ProLeuTrpNHBn(CF3)2 (TY049)]			25%					0.18 nM	4.54 nM	2050 nM
YAGFMPLW (D-Ala at 2; Met(O) (oxidized methionine) at 5; C-terminal O-3,5-Bn(CF3)2 ester) [TyrDAlaGlyPheMet(O)ProLeuTrpOBn(CF3)2 (TY023)]		52.8%		154 nM	7.8 nM	5.08 nM		0.00015 nM	0.2 nM	
YXGFXPLW (D-Pen (D-penicillamine) at 2 (X); Pen (L-penicillamine) at 5 (X); disulfide 2-5 (cyclic); C-terminal NH-Bn(CF3)2 amide) [Tyr[DPenGlyPhePen]ProLeuTrpNHBn(CF3)2 (TY046)]	17.2 nM	15%				1.7 nM		0.0053 nM		2330 nM
YAGFXPLW (D-Ala at 2; Nle (norleucine) at 5 (X); C-terminal O-3,5-Bn(CF3)2 ester) [TyrDAlaGlyPheNleProLeuTrpOBn(CF3)2 (TY018)]	4 nM	131%		372 nM	7.93 nM	1.8 nM		0.14 nM		
[Dmt][dA]GF[Nle]PS(Glc)W-{NH‑Bn(CF3)2} [DmtDAlaGlyPheNleProSer(OGlu)TrpNHBn(CF3)2 (TY056)]			66%	24.9 nM	1.2 nM		44.9 nM	0.0017 nM	10.1 nM	1.9 nM
Y[dA]GF[Nle]S(Glc″)LW-{NH‑Bn(CF3)2} [TyrDAlaGlyPheNleSer(OGlu)LeuTrpNHBn(CF3)2 (TY044)]			85%				380 nM	1.3 nM		3370 nM
